From the domain aggregation screens of Martell et al. (2025)

Assay: soluble fraction after stress (log2 fold change); higher = more stays soluble; pooled small domains, quantitative proteomics
Conditions: stress: 75 degC
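Note: 20 min heating vs room temperature control held 20 min.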

Sequence	soluble fraction (log2)
HMGALTGQERRAEIMNILRQSTMPLSGAALGKQLGVSRQVVVQDIALLRQSGEEIYATNRGYVTG	-0.417
HMGAQPLIEPLSERELEVLALIAEGLTNAEIGRRLFIATGTVKRHVNTIYGKLDVHGRIEAIARARDLHLI	-1.25
HMGAQRDFELQLIDVIRQNPGLTYKAYGEKLSVSQATVKRLVAKLKETGSIRREGSQRKGTWIITDD	-1.49
HMGARWPIQDRPLTATEAAAVRRMYAGGLPHGRSKNSVITEVWGDLSNKPKRLDWLNQALEGGA	0.0155
HMGASGVEVPDVAGMSTAQAVSSLEQKGFVVNRTESYDAGVEKGNVISQSPEGGTKAPNGSAVTIRISQGA	0.831
HMGASIQITVNNTPVMLKNKTHYTLVDVLDFYPFDLSKMGGTELYTAINGVKSGFTDPVHANDSIEIYWI	-2.49
HMGASSLVGRSARVLQAVTDSDGRIKLAGETWSARLAAGATSTVGPGEEVRVIAIHGATAIVAPV	-0.581
HMGASVGEVESVKTASEIYTAAAGKIVAVNDAVAKDPSLVNSDPYGNGWLVKLEIADLSAINA	0.0161
HMGAVDIATARQLISEIGLPIMLKAEGGGGGRGIFAIHNEAELEDAFFKASTMAQASFGNPRLFVEKF	-0.441
HMGAVFEFIMEEEEPERIDKLLSSALPDLSRSYLQKLVKEGAVLVNKKEVKPNHKVNPGDVVEISVPEPE	0.448
HMGAVGISQKVTSLETAVLGKNFAKDPLIDRVARLEQTVLPKQAEANASLSLPERVSKLLEKVPIAAG	0.109
HMGAVPKNYFPAVEKGLQDSVQKGLLAGYPVVGVKAILYDGSYHPVDSSEMAFKTATIQAFKKGFMEA	0.187
HMGAYIPSYAPVDINAATHTVVRGDTVYNISKRYHVSQEDFRAWNGMADNTLSIGQVVKVKPAGYTAPK	-0.267
HMGDAVSRAYFALADDLLKGELTETVSEVLIRTRYELTSAQLQAVLHRIAQEGWAHKKPGYGWEFSAMLT	-2.01
HMGDEHYDTISAFIKSVRGSDPDAALYWLAKMILAGEDPRFILRRLIVLSGEDIGLADPQGI	-0.552
HMGDEPGAGYKWREDVLLRVMSEHGIDESARDDFVRHAVKFDDDDNLYLKKAEIIAAAEAWESSS	0.359
HMGDFLLQVDFPPALLEMLPEGKRQAAIGVLSHDPRPAYQRTPGRVYGLNFAGHNIRFAVSENLLTVLEV	-2.16
HMGDFLLTPHRGRSADFVIGNPPYIRLEDVPNDISDAYRAEYASMPGRADIHVGFYEKGLDL	-0.117
HMGDFVIVPDLIGKTIEEFDSELNELNLKYIISDSGNYNPDFKINSVLDQLPNANSKVKGGRKIYITLNAS	-1.05
HMGDGAWQQGEGGRWWYKYNNGTYPKDRVVTIGGKKYGFDSEGWMLSDTTKAFGGTTYSFAADGVATAQA	-0.0039
HMGDGYTYYYDDTVLALGFTKIGNDYYIFNTFSGKMYKDATMWVNDNPYGIKGGMHYFDASGKMFV	0.215
HMGDIFTAEDAKERIDYSGVDGIMLARGIFGNPWLIRDIREYLEYGKILHPVTQLDRVNMAIEHTRKT	0.169
HMGDIMLLFKENGKVYFLVGNQYTYVKNPTELSAIKTMMKQAGYDTHEHTNTTQVAYIKRLATE	-2.35
HMGDKVLIQTAQRLKKDLPFASIVSRFGGDEFLIFLPGISSTERVETIVKKTVFLFIAISTTLF	-0.28

Sequence	soluble fraction (log2)
HMGDLKSLIQATMDDAGISIKPDAMDYLISHLGSDRLTTRAELDKLILYAGADDKLDLDSVVELVG	0.00366
HMGDLLTVDRVAATSGLGVDTIRYYQRLGLLDPPVRHGRRALYSTAHLDRLVEIRQLADEGFSLAQIATL	-1.05
HMGDLVFDFVHGVHKAAEVEKELVMQALRFTHGNVSRAARLIGMQRSSLRYRIERYRLDAFVMEVAN	0.276
HMGDPSSERNIQKSIFILIGEKALSVQDISRSLGMPNDIIDKALISGVERNLWLSSDKGEYYL	-1.2
HMGDRRSVFEQSVLDAIKSLVKQGELATTKAISDHIGTNYQGNVSRAITALLADNKIKKLPKEGVLQPYEA	-0.0172
HMGDSFLDHKKELQSMILSRLDLSREVPDEEIKDIIDELIIAQSKKLFLSLNDRGKLRQELFYSIRK	-1.23
HMGDSVLNDKLNTLAGLDEERFKWVLASLNPNNSYSTHSDKMSALMWLVSYFNDEADLKETVPPLPI	-0.189
HMGDTIFINNNFYVKHIVEFGETIDIISKIYDVSVNKILETNETSTKLYSGQSLFIPININV	-3.47
HMGDTLEIVVIYSNKQKAEEAVNNLKGKFEDLGYNFAIITVDTSKITQLAMESSIQYIEFPKSFYFSD	-4.25
HMGDVATVKLDNNGLLNMRKSDARGADIVARIPNGTVVQVLNRETEWTQVRYDGKEGYVMSSFLQFAE	-0.047
HMGDVPESLVEKAGHSINAKIISAWGMTETGASTMTRPQDDPERAIYSDGVVLPLMDVRVVNDAGLA	-0.167
HMGDWEKALAQFAAHRLANGSTAFLDEMYPIFERILLQAALNKTGGRKIEAAELLGWGRNTLTRKLKELGF	-2.2
HMGDYERVPEYKGKLTSDLTMEDSQKFAFRFIWQNSDEDEGKIIDQDPPAGKSVAKGSEIVLYVSNG	0.474
HMGEAAIYRINILINNLNVRSGPGTLYPRLRRADFPGEYDIFEEKNGFGRISNTKSEWVSLNTQYVQRLT	-2.8
HMGEAIPVPDLKHKALTDAEHLVHELGLEIQVVDTGYVKSLPADYILGQSLAPGEKVKSGHIIYVTINSP	-1.23
HMGEGTAVGKALKFLAAQGKKFAPELLDMAGSLTGVEALSKLGDAIKGDPELSELDKRILLAELETDAV	-0.171
HMGEIHALIPGLVSRLFVKPGDRVENGQGLLILEAMKMENEIDSPISGVVGKIYIKAGDKVEKGELIMEIN	-1.45
HMGEIVVPDLIGKSLTEATRILSDSTLTVGKVNYQISSTLLPNTVLDQYPAPGNKLNSGNTVDLFITKE	0.068
HMGEKTLSEKVYDRLKELIMDGELERGTKITETSIAKMFDVSPTPVREAFRKLASDGLIEVASWKGVIVKG	-0.378
HMGELYGTDQYKDGDAQDTNIGKLLEVNIDGKWQVATTGTSRFEFAGVMDDNGHKLIMISVLPEAKTV	0.0596
HMGEPLSPDARALTNVLRHYRGWAEPGELARKSGLGSRERVLTAAQSLVNAGLADIERGMVRPTAALMEVQ	0.0619
HMGEPVASSREVAKRFGKEHKHVLAAIRQILVAENSATKFFHETAFEYRGQRFPEYLMNRDGFALLAMGF	-3.15
HMGEPVNSPMPGTILRVEVTQGAAVKEGQLLVVLEAMKMENEILAPKDGTVAQVVVQKGSHVETGSPLIVL	-0.508
HMGEQLALLERARTLLEDETLETEVQKELEMLLEDIEAARAEANATQLEDLFEELADLLFDLE	0.316

Sequence	soluble fraction (log2)
HMGEQYYVLIDNKQNGPHNINAIQKMIDQNIVNRQTLIWKKGMTDWGNIMDDKDLKEMVNKIP	0.111
HMGERMELTLDNPREAIPVLDAMGFANYQVVDKEHIHIFERLNESALVNMELAKAGIPVKGISITSE	0.0918
HMGESEWIVKWRGEKRDEERLQESELVRDDPEHRISVVRPRDDVDASAWLNRWRKSRYVQYIQPNHRVTIS	0.568
HMGESFPYVAYATDSVRLRARPSSSATILTVIRKGDAVLITGADGSYKIVEYEGRKGYVVSAFLSSQET	-2.51
HMGESVQVPSYVGMGFREAARKARARDFGVAVSDSIYVPGKPPGEIIAQDPKAESRVKEGRTIYFTVAK	-0.109
HMGETAFRYALPLDQGEALKRSHVIRQSISPDDALATRVTVLEDVLDQTLRQPVQAGEVLLEDHFTR	-0.0825
HMGETRWTYDDFGNILTEKAAPYSATEFLGKTYTYDTDNRYLKTVTDALGRTTTTLSYDKYGNPLSVMD	0.115
HMGETWYEILEISSDATTEEIRQAYFEQARQYHPDTNPGELAREWFYQVQEAYETLSDPDRRRQYDESIKG	-0.0285
HMGEVEVPDLVGIEAIQAKTLLFNSDFLIKEFYDYDPTQPIGVVIRQAPEAGTTQTIGDSVTITINRA	-0.334
HMGEVISRSYPLLKTKAKPAEVSEALQKLIKAPATVTFDEKNEVFHINATRLQHTWAEGYFKGLHGK	-0.14
HMGEVPPGWSVEALAAIERDLAHHVGPVARVLVQRGARLHTTTDDLRSALANAITDDLARRRFMQP	-0.575
HMGFEALRSRHRITAREMEVLQHMLAGRSNAEIGHTLGLSERTVKTHITSIFNKLGVDSRAQLGYMLK	-1.87
HMGFLTKTQRLEILLHLKDEPYYNVEKLKELIKNRYGIVYQSSQSYYDLLKEAGLSWHQTQA	-2.33
HMGFVTVTEVDTTADLKLARVYVSVLGPEEQWAKSFTALESARGFVWNWLRKHLDLRVTPQLAF	-1.08
HMGGASVTDQQIRDFVSAHTDDPMAIYKAAVANGISSARLAQVTGISIADIEAFVRKNNLPSF	-0.0535
HMGGEEINMINLVGLSQSEAENQLAKLKLKIGQVTAEYSDKPSGTVLKQSISANNKVKKGADIDIVVSKG	-0.0126
HMGGELLSLRRIGTLTGISYPTLLRYVARYGEQIPQTGTGRSRRFPPAAVPVFQELRATRGRAPRATA	-0.104
HMGGEPKALLFAGVETREMAEITQRLEAADIPYEIREDGGSIYVARSEVFNARMMLSADGLPS	-0.455
HMGGFNATTLQNIEELRRSLSDADQFGRHEVIETIGGSDSRAGKLLKKMLEAGIIEQVKGHGKGRYRFKRT	0.0983
HMGGGEYTVAKGDTLWKIAAQTLGSPTRYAEIYNLNKDVIEETARGRGKRDSSNGHWLFPGTALKIPGT	0.421
HMGGGFLVPSLVGKSLEEARSLSELRGFKLEVGDYVISSEYPAGRVTRQNPANGAKGQEGDVIKVEVSS	-0.00395
HMGGGRELGLDPETGKKISVRLGKFGPFVQLGESGEEDKPVFANLGKNQSIATLSLEEAIALLARPK	0.187
